Patent US20250206828A1, “ANTI-ADENOSINE RECEPTOR (A2aR) ANTIBODIES AND THE USE THEREOF” (Adept Therapeutics Inc., priority 2022, published 2025)
Where two headings read alike, the source gives them in different places.

Legend:
[1] = molecular target: T1, human adenosine A2A receptor (A2aR) (human, UniProt P29274 1-412); test: flow cytometry, HEK293-hA2aR cells, supernatant 1 ug/ml
T1 construct: Assays used HEK293 cells stably overexpressing human A2aR (BPS Bioscience 79381), human A2aR-expressing CHO cells, or endogenous A2aR on human PBMC; also called human A2aR; hA2aR

[2] = molecular target: T1, human adenosine A2A receptor (A2aR); test: as above; remark: listed apart in the source

T1 sequence (P29274 whole entry): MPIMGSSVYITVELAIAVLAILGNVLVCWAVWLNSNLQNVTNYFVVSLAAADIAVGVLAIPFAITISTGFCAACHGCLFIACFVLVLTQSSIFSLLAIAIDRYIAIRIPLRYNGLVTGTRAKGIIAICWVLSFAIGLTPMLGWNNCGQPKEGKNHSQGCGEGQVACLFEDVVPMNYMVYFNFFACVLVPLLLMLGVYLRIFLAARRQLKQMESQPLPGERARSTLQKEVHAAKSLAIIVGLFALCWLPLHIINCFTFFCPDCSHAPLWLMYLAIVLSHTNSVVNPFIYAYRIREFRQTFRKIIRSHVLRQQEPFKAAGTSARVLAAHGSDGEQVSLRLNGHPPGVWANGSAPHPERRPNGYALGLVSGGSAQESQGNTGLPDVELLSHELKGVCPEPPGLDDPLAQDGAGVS

| MFI [1] | MFI [2] | Binder |
| --- | --- | --- |
| 1570 MFI |  | Hu1B5-H1/Hu1B5-L4 (antibody, human IgG1, V domains shown, Human IgG1 FES (L234F, L235E, P331S) and human Ig kappa constant domains) VH: QVQLVQSGAEVKKPGASVKVSCKASGFTFTRFWMNWVRQAPGQGLEWMGRIDPYDSETQYNHKFWDRVTMTRDTSTSTVYMELSSLRSEDTAVYYCGRSLYGKGDYWGQGTTVTVSS VL: DVVMTQSPLSLPVTPGEPASISCRSSQSIVHSNGNTYLEWYLQKPGQSPQLLIYKVSNRFSGVPDRFSGSGSGTDFTLKISRVEAEDVGVYYCFQGSHVPLTFGGGTKVEIK |
|  | 1880 MFI | Hu3F6-H4/Hu3F6-L7 (antibody, human IgG1, V domains shown, Human IgG1 FES (L234F, L235E, P331S) and human Ig kappa constant domains) VH: EVQLVQSGAEVKKPGASVKVSCKTSGFAFTSYWMNWVRQAPGQGLEWIGRIDPSDSEAHYHHKFWGRATLTVDKSSSTVYMELSSLRSEDTAVYYCLRSLYGKGDYWGHGTTVTVSS VL: DVVMTQTPPSLPVNPGEPASISCRSSQSLVHRNGNTYLEWYLQKPGQSPQLLIYKVSNRFSGVPDRFSGSGSGSDFTLKISWVEAEDVGVYYCYQGSHVPLTFGGGTKVEIK |
|  | 1890 MFI | Hu3F6-H5/Hu3F6-L7 (antibody, human IgG1, V domains shown, Human IgG1 FES (L234F, L235E, P331S) and human Ig kappa constant domains) VH: EVQLVQSGAEVKKPGASVKVSCKTSGFAFTSYWMNWVRQAPGQGLEWIGRIDPSDSEAHYAHKFWGRATLTVDKSSSTVYMELSSLRSEDTAVYYCLRSLYGKGDYWGHGTTVTVSS VL: DVVMTQTPPSLPVNPGEPASISCRSSQSLVHRNGNTYLEWYLQKPGQSPQLLIYKVSNRFSGVPDRFSGSGSGSDFTLKISWVEAEDVGVYYCYQGSHVPLTFGGGTKVEIK |
|  | 1990 MFI | Hu3F6-H4/Hu3F6-L5 (antibody, human IgG1, V domains shown, Human IgG1 FES (L234F, L235E, P331S) and human Ig kappa constant domains) VH: EVQLVQSGAEVKKPGASVKVSCKTSGFAFTSYWMNWVRQAPGQGLEWIGRIDPSDSEAHYHHKFWGRATLTVDKSSSTVYMELSSLRSEDTAVYYCLRSLYGKGDYWGHGTTVTVSS VL: DVVMTQTPLSLSVTPGQPASISCRSSQSLVHRNGNTYLEWYLQKPGQSPQLLIYKVSNRFSGVPDRFSGSGSGTDFTLKISRVEAEDVGVYYCYQGSHVPLTFGGGTKVEIK |
|  | 1450 MFI | Hu3F6-H4/Hu3F6-L4 (antibody, human IgG1, V domains shown, Human IgG1 FES (L234F, L235E, P331S) and human Ig kappa constant domains) VH: EVQLVQSGAEVKKPGASVKVSCKTSGFAFTSYWMNWVRQAPGQGLEWIGRIDPSDSEAHYHHKFWGRATLTVDKSSSTVYMELSSLRSEDTAVYYCLRSLYGKGDYWGHGTTVTVSS VL: DIVMTQTPLSLSVTPGQPASISCRSSQSLVHRNGNTYLEWYLQKPGQSPQLLIYKVSNRFSGVPDRFSGSGSGTDFTLKISRVEAEDVGVYYCYQGSHVPLTFGGGTKVEIK |
|  | 1960 MFI | Hu3F6-H4/Hu3F6-L3 (antibody, human IgG1, V domains shown, Human IgG1 FES (L234F, L235E, P331S) and human Ig kappa constant domains) VH: EVQLVQSGAEVKKPGASVKVSCKTSGFAFTSYWMNWVRQAPGQGLEWIGRIDPSDSEAHYHHKFWGRATLTVDKSSSTVYMELSSLRSEDTAVYYCLRSLYGKGDYWGHGTTVTVSS VL: DVVMTQSPLSLPVTLGQPASISCRSSQSLVHRNGNTYLEWYQQRPGQSPRLLIYKVSNRFSGVPDRFSGSGSGTDFTLKISRVEAEDVGVYYCYQGSHVPLTFGGGTKVEIK |
|  | 255 MFI | Hu3F6-H4/Hu3F6-L2 (antibody, human IgG1, V domains shown, Human IgG1 FES (L234F, L235E, P331S) and human Ig kappa constant domains) VH: EVQLVQSGAEVKKPGASVKVSCKTSGFAFTSYWMNWVRQAPGQGLEWIGRIDPSDSEAHYHHKFWGRATLTVDKSSSTVYMELSSLRSEDTAVYYCLRSLYGKGDYWGHGTTVTVSS VL: DVVMTQSPLSLPVTLGQPASISCRSSQSLVHRNGNTYLEWYQQRPGQSPRRLIYKVSNRFSGVPDRFSGSGSGTDFTLKISRVEAEDVGVYYCYQGSHVPLTFGGGTKVEIK |
| 960 MFI |  | Hu1B5-H2.1/Hu1B5-L5 (antibody, human IgG1, V domains shown, Human IgG1 FES (L234F, L235E, P331S) and human Ig kappa constant domains) VH: EVQLVQSGAEVKKPGASVKVSCKTSGFTFTRFWMNWVRQAPGQGLEWIGRIDPYDSETQYNHKFWDRVTMTVDTSTSTVYMELSSLRSEDTAVYYCGRSLYGKGDYWGQGTTVTVSS VL: DIVMTQSPDSLAVSLGERATINCRSSQSIVHSNGNTYLEWYQQKPGQPPKLLIYKVSNRFSGVPDRFSGSGSGTDFTLTISSLQAEDVAVYYCFQGSHVPLTFGGGTKVEIK |
|  | 1840 MFI | Hu3F6-H5/Hu3F6-L6 (antibody, human IgG1, V domains shown, Human IgG1 FES (L234F, L235E, P331S) and human Ig kappa constant domains) VH: EVQLVQSGAEVKKPGASVKVSCKTSGFAFTSYWMNWVRQAPGQGLEWIGRIDPSDSEAHYAHKFWGRATLTVDKSSSTVYMELSSLRSEDTAVYYCLRSLYGKGDYWGHGTTVTVSS VL: DIVMTQTPPSLPVNPGEPASISCRSSQSLVHRNGNTYLEWYLQKPGQSPQLLIYKVSNRFSGVPDRFSGSGSGSDFTLKISWVEAEDVGVYYCYQGSHVPLTFGGGTKVEIK |
|  | 1960 MFI | Hu3F6-H4/Hu3F6-L6 (antibody, human IgG1, V domains shown, Human IgG1 FES (L234F, L235E, P331S) and human Ig kappa constant domains) VH: EVQLVQSGAEVKKPGASVKVSCKTSGFAFTSYWMNWVRQAPGQGLEWIGRIDPSDSEAHYHHKFWGRATLTVDKSSSTVYMELSSLRSEDTAVYYCLRSLYGKGDYWGHGTTVTVSS VL: DIVMTQTPPSLPVNPGEPASISCRSSQSLVHRNGNTYLEWYLQKPGQSPQLLIYKVSNRFSGVPDRFSGSGSGSDFTLKISWVEAEDVGVYYCYQGSHVPLTFGGGTKVEIK |
| 34 MFI |  | Hu1B5-H1/Hu1B5-L1 (antibody, human IgG1, V domains shown, Human IgG1 FES (L234F, L235E, P331S) and human Ig kappa constant domains) VH: QVQLVQSGAEVKKPGASVKVSCKASGFTFTRFWMNWVRQAPGQGLEWMGRIDPYDSETQYNHKFWDRVTMTRDTSTSTVYMELSSLRSEDTAVYYCGRSLYGKGDYWGQGTTVTVSS VL: DVVMTQSPLSLPVTLGQPASISCRSSQSIVHSNGNTYLEWFQQRPGQSPRRLIYKVSNRFSGVPDRFSGSGSGTDFTLKISRVEAEDVGVYYCFQGSHVPLTFGGGTKVEIK |
| 1710 MFI |  | Hu1B5-H5/Hu1B5-L4 (antibody, human IgG1, V domains shown, Human IgG1 FES (L234F, L235E, P331S) and human Ig kappa constant domains) VH: EVQLVQSGAEVKKPGASVKVSCKTSGFTFTRFWMNWVRQAPGQGLEWIGRIDPYDSETQYAHKFWDRATLTVDKSSSTVYMELSSLRSEDTAVYYCGRSLYGKGDYWGQGTTVTVSS VL: DVVMTQSPLSLPVTPGEPASISCRSSQSIVHSNGNTYLEWYLQKPGQSPQLLIYKVSNRFSGVPDRFSGSGSGTDFTLKISRVEAEDVGVYYCFQGSHVPLTFGGGTKVEIK |
| 481 MFI |  | Hu1B5-H1/Hu1B5-L5 (antibody, human IgG1, V domains shown, Human IgG1 FES (L234F, L235E, P331S) and human Ig kappa constant domains) VH: QVQLVQSGAEVKKPGASVKVSCKASGFTFTRFWMNWVRQAPGQGLEWMGRIDPYDSETQYNHKFWDRVTMTRDTSTSTVYMELSSLRSEDTAVYYCGRSLYGKGDYWGQGTTVTVSS VL: DIVMTQSPDSLAVSLGERATINCRSSQSIVHSNGNTYLEWYQQKPGQPPKLLIYKVSNRFSGVPDRFSGSGSGTDFTLTISSLQAEDVAVYYCFQGSHVPLTFGGGTKVEIK |
| 823 MFI |  | Hu1B5-H5/Hu1B5-L5 (antibody, human IgG1, V domains shown, Human IgG1 FES (L234F, L235E, P331S) and human Ig kappa constant domains) VH: EVQLVQSGAEVKKPGASVKVSCKTSGFTFTRFWMNWVRQAPGQGLEWIGRIDPYDSETQYAHKFWDRATLTVDKSSSTVYMELSSLRSEDTAVYYCGRSLYGKGDYWGQGTTVTVSS VL: DIVMTQSPDSLAVSLGERATINCRSSQSIVHSNGNTYLEWYQQKPGQPPKLLIYKVSNRFSGVPDRFSGSGSGTDFTLTISSLQAEDVAVYYCFQGSHVPLTFGGGTKVEIK |
| 1550 MFI |  | Hu1B5-H3/Hu1B5-L4 (antibody, human IgG1, V domains shown, Human IgG1 FES (L234F, L235E, P331S) and human Ig kappa constant domains) VH: EVQLVQSGAEVKKPGASVKVSCKTSGFTFTRFWMNWVRQAPGQGLEWIGRIDPYDSETQYNHKFWDRATLTVDTSSSTVYMELSSLRSEDTAVYYCGRSLYGKGDYWGQGTTVTVSS VL: DVVMTQSPLSLPVTPGEPASISCRSSQSIVHSNGNTYLEWYLQKPGQSPQLLIYKVSNRFSGVPDRFSGSGSGTDFTLKISRVEAEDVGVYYCFQGSHVPLTFGGGTKVEIK |
| 686 MFI |  | Hu1B5-H3/Hu1B5-L5 (antibody, human IgG1, V domains shown, Human IgG1 FES (L234F, L235E, P331S) and human Ig kappa constant domains) VH: EVQLVQSGAEVKKPGASVKVSCKTSGFTFTRFWMNWVRQAPGQGLEWIGRIDPYDSETQYNHKFWDRATLTVDTSSSTVYMELSSLRSEDTAVYYCGRSLYGKGDYWGQGTTVTVSS VL: DIVMTQSPDSLAVSLGERATINCRSSQSIVHSNGNTYLEWYQQKPGQPPKLLIYKVSNRFSGVPDRFSGSGSGTDFTLTISSLQAEDVAVYYCFQGSHVPLTFGGGTKVEIK |
| 1780 MFI |  | Hu1B5-H4/Hu1B5-L4 (antibody, human IgG1, V domains shown, Human IgG1 FES (L234F, L235E, P331S) and human Ig kappa constant domains) VH: EVQLVQSGAEVKKPGASVKVSCKTSGFTFTRFWMNWVRQAPGQGLEWIGRIDPYDSETQYNHKFWDRATLTVDKSSSTVYMELSSLRSEDTAVYYCGRSLYGKGDYWGQGTTVTVSS VL: DVVMTQSPLSLPVTPGEPASISCRSSQSIVHSNGNTYLEWYLQKPGQSPQLLIYKVSNRFSGVPDRFSGSGSGTDFTLKISRVEAEDVGVYYCFQGSHVPLTFGGGTKVEIK |
| 872 MFI |  | Hu1B5-H4/Hu1B5-L5 (antibody, human IgG1, V domains shown, Human IgG1 FES (L234F, L235E, P331S) and human Ig kappa constant domains) VH: EVQLVQSGAEVKKPGASVKVSCKTSGFTFTRFWMNWVRQAPGQGLEWIGRIDPYDSETQYNHKFWDRATLTVDKSSSTVYMELSSLRSEDTAVYYCGRSLYGKGDYWGQGTTVTVSS VL: DIVMTQSPDSLAVSLGERATINCRSSQSIVHSNGNTYLEWYQQKPGQPPKLLIYKVSNRFSGVPDRFSGSGSGTDFTLTISSLQAEDVAVYYCFQGSHVPLTFGGGTKVEIK |
| 1720 MFI |  | Hu1B5-H2.1/Hu1B5-L4 (antibody, human IgG1, V domains shown, Human IgG1 FES (L234F, L235E, P331S) and human Ig kappa constant domains) VH: EVQLVQSGAEVKKPGASVKVSCKTSGFTFTRFWMNWVRQAPGQGLEWIGRIDPYDSETQYNHKFWDRVTMTVDTSTSTVYMELSSLRSEDTAVYYCGRSLYGKGDYWGQGTTVTVSS VL: DVVMTQSPLSLPVTPGEPASISCRSSQSIVHSNGNTYLEWYLQKPGQSPQLLIYKVSNRFSGVPDRFSGSGSGTDFTLKISRVEAEDVGVYYCFQGSHVPLTFGGGTKVEIK |
| 1630 MFI |  | Hu1B5-H2/Hu1B5-L4 (antibody, human IgG1, V domains shown, Human IgG1 FES (L234F, L235E, P331S) and human Ig kappa constant domains) VH: EVQLVQSGAEVKKPGASVKVSCKTSGFTFTRFWMNWVRQAPGQGLEWMGRIDPYDSETQYNHKFWDRVTMTVDTSTSTVYMELSSLRSEDTAVYYCGRSLYGKGDYWGQGTTVTVSS VL: DVVMTQSPLSLPVTPGEPASISCRSSQSIVHSNGNTYLEWYLQKPGQSPQLLIYKVSNRFSGVPDRFSGSGSGTDFTLKISRVEAEDVGVYYCFQGSHVPLTFGGGTKVEIK |
| 728 MFI |  | Hu1B5-H2/Hu1B5-L5 (antibody, human IgG1, V domains shown, Human IgG1 FES (L234F, L235E, P331S) and human Ig kappa constant domains) VH: EVQLVQSGAEVKKPGASVKVSCKTSGFTFTRFWMNWVRQAPGQGLEWMGRIDPYDSETQYNHKFWDRVTMTVDTSTSTVYMELSSLRSEDTAVYYCGRSLYGKGDYWGQGTTVTVSS VL: DIVMTQSPDSLAVSLGERATINCRSSQSIVHSNGNTYLEWYQQKPGQPPKLLIYKVSNRFSGVPDRFSGSGSGTDFTLTISSLQAEDVAVYYCFQGSHVPLTFGGGTKVEIK |
